Reference: US20210403602A1 (Bristol-Myers Squibb, published 2021)

Tests used:
[1] = biological target: T1, denatured recombinant human IDO protein with a 6-His tag and thrombin site linker (His-Tb-IDO) (human, UniProt P14902 1-403); experiment: direct ELISA of hybridoma supernatants on plates coated with denatured His-Tb-IDO at 2 ug/mL
T1 construct: Immunogen and ELISA coating antigen, used in denatured form; also called denatured tagged antigen
Protocol: After eleven days, hybridoma culture supernatants were collected and screened by direct ELISA for specific binding to denatured His-Tb-IDO. Briefly, 96-well polystyrene microplates (Corning 9018) were coated overnight at 4C with 60 uL of denatured tagged antigen at 2 ug/mL in PBS. The plates were blocked with 200 uL/well of assay buffer containing 0.5% bovine serum albumin in PBS and washed. After the blocking step, 100 uL of supernatant from individual hybridoma culture wells were added and incubated for one hour on a plate shaker at room temperature. The plates were washed three times with PBS and 100 ul of F(ab′)₂ fragment goat anti-mouse IgG Fcγ (1:1000 dilution) (Jackson ImmunoResearch 115-036-071) was added and incubated for 1 hour at RT and washed again with PBS. The plates were then developed with 100 ul/well of ABTS HRP substrate (Surmodics ABTS-1000-01) for 5 to 10 minutes, and analyzed using a PerkinElmer EnVision microplate reader at 405 nm. The data was analyzed using TIBCO Spotfire.

[2] = biological target: T2, human Indoleamine 2,3-dioxygenase (IDO) in fixed cells and tissues (human, UniProt P14902 1-403); experiment: immunohistochemistry on FFPE H1048 cells and cervical SCC tissue, HALO image analysis; antibody concentration printed on the sheet as 0.5 ug/ml, given in the legend as 0.05 ug/ml
T2 construct: also called IDO1; human IDO
Protocol: To further develop a user and clinical friendly assay, mAb 1E7 was optimized for automated IHC using the Leica BondRX platform. The Bond Polymer Refine Detection System (Leica, catalog #DS9800) was used for the detection of IDO1 and all incubations were carried out at room temperature. Briefly, slides were deparaffinized and rehydrated following routine histology procedures. The slides were loaded onto the Leica BondRX automated IHC stainer and antigen retrieved with either the Bond Epitope Retrieval Solution 1 (Leica, catalog #AR9961) or 2 (Leica, catalog #AR9640) for 20 minutes at 95° C. Peroxidase block from the Bond Polymer Refine Detection kit (Leica, catalog #DS9800) was applied to the slides for 10 min, followed by non-specific binding blocking using protein block (Agilent-DAKO, catalog #X0909) supplemented with 0.5% human gamma globulins (Sigma, catalog #G-4386) for 20 min. Primary antibody 1E7 was incubated at 0.03 or 0.05 μg/ml for 60 minutes, and followed by rabbit anti-mouse linker and then anti-rabbit Poly-HRP-IgG from the Bond Polymer Refine Detection Kit for 30 min each step. […] Whole slide digital images of stained slides were captured and viewed using Aperio AT2 ScanScope and e-Slide Manager (Leica), and then analyzed by a pathologist for manual score or with Halo software (Indica) for quantitative image analysis.

T2 sequence (P14902 whole entry): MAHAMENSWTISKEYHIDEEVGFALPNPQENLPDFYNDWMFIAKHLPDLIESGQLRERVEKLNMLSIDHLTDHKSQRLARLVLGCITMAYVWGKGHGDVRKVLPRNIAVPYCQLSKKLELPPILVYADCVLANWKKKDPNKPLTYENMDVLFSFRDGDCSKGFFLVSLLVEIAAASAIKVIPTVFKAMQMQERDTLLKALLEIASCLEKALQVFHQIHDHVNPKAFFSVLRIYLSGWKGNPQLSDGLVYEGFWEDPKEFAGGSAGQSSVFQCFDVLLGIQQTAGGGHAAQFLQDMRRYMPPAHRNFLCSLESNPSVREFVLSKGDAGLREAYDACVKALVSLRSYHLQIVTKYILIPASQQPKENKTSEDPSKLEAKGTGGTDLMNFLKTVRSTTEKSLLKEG
T1 sequence (P14902 other isoform, or with tags, fused parts or gaps limits assumed): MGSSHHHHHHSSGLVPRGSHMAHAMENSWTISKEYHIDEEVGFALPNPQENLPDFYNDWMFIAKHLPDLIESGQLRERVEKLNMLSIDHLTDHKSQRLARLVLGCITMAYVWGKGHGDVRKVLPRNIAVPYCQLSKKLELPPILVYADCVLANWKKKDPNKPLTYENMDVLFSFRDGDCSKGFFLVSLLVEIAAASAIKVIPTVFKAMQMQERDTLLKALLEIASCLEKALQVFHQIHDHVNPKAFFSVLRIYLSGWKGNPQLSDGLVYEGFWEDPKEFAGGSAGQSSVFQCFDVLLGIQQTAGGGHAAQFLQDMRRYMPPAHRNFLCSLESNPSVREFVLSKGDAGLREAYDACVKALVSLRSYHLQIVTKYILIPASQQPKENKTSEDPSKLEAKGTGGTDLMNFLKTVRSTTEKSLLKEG

B1: anti-IDO monoclonal antibody 1E7 (antibody, mouse IgG1, kappa, V domains shown)
VH: QVQLQQSGAELAKPGASVKMSCKTSGYTFTSYWMHWVKQRPGQGLEWIGYINPTTGYTDCNQKFKDKATLTADKSSNTAYLQLSSLTSEDSAVYYCARSAMFGRGWGQGTTLTVSS
VL: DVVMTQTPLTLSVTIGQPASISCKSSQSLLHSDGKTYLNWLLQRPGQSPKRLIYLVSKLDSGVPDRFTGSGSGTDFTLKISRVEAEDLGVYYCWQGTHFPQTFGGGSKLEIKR
notes: also called mAb 1E7; IDO mAb 1E7
binding result [1]: binds
binding result [2]: binds
